Measurements as given in US20240239894A1, “THERAPEUTIC BINDING MOLECULES” (MedImmune Limited, priority 2020, published 2024).
Entries after “also recorded” stand apart in the source; their conditions may differ.

T1: human B7-H4 (Homo sapiens, UniProt Q7Z7D3)
T1 construct: Human B7H4 ECD; FlagHis10 or FcHis6 (either; equivalent data); made in house
T1 sequence (Q7Z7D3 25-259 limits assumed): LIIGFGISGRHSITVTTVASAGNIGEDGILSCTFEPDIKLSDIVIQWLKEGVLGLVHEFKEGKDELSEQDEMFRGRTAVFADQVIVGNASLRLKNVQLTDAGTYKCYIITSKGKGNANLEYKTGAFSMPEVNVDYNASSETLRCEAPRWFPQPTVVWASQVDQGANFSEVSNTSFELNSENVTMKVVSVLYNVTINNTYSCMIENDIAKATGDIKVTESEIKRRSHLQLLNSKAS

T2: immobilized recombinant human B7-H4 (Homo sapiens, UniProt Q7Z7D3)
T2 sequence (Q7Z7D3 25-282): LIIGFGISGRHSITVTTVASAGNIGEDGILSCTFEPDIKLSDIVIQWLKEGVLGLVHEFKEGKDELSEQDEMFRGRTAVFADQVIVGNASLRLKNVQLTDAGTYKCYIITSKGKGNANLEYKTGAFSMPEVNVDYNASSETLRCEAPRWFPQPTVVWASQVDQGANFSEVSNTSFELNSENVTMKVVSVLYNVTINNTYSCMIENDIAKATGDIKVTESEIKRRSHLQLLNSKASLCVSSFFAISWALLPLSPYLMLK

B1: E02-GL-SG3249: clone E02-GL (Maia heavy chain backbone) conjugated to the PBD cytotoxin SG3249 (conjugate)
heavy: QVQLQQWGAGLLKPSETLSLACTVYGGSFSGYYWNWIRQPPGKGLEWIGEINHSGSTSYNPSLKSRVTISVDTSKNQFSLKLSSVTAADTAVYYCARVLYNWNVDSWGQGTLVTVSSASTKGPSVFPLAPSSKSTSGGTAALGCLVKDYFPEPVTVSWNSGALTSGVHTFPAVLQSSGLYSLSSVVTVPSSSLGTQTYICNVNHKPSNTKVDKRVEPKSCDKTHTCPPCPAPELLGGPSCVFLFPPKPKDTLMISRTPEVTCVVVDVSHEDPEVKFNWYVDGVEVHNAKTKPREEQYNSTYRVVSVLTVLHQDWLNGKEYKCKVSNKALPAPIEKTISKAKGQPREPQVYTLPPSREEMTKNQVSLTCLVKGFYPSDIAVEWESNGQPENNYKTTPPVLDSDGSFFLYSKLTVDKSRWQQGNVFSCSVMHEALHNHYTQKSLSLSPGK
light: DIQMTQSPSSLSASVGDRVTITCRASQDIRNDVGWYQQKPGKAPKRLIYAASRLQSGVPSRFSGSGSGTEFTLTISSLQPEDFATYYCLQHNSYPRTFGQGTKVEIKRTVAAPSVFIFPPSDEQLKSGTASVVCLLNNFYPREAKVQWKVDNALQSGNSQESVTEQDSKDSTYSLSSTLTLSKADYEKHKVYACEVTHQGLSSPVTKSFNRGEC
B2: E02-GL: germlined ZY0EQD-E02, VH SEQ ID NO: 45, VL SEQ ID NO: 34; antibody intermediate of E02-GL-SG3932 (antibody, V domains shown)
VH: QVQLQQWGAGLLKPSETLSLACTVYGGSFSGYYWNWIRQPPGKGLEWIGEINHSGSTSYNPSLKSRVTISVDTSKNQFSLKLSSVTAADTAVYYCARVLYNWNVDSWGQGTLVTVSS
VL: DIQMTQSPSSLSASVGDRVTITCRASQDIRNDVGWYQQKPGKAPKRLIYAASRLQSGVPSRFSGSGSGTEFTLTISSLQPEDFATYYCLQHNSYPRTFGQGTKVEIK

How the values were obtained:
HCC1569 xenograft = assay: Tumour xenograft; format: in vivo, mice; conditions: HER2 positive breast cancer, heterogeneous B7-H4
Description: (§1) Tumour xenografts were prepared on mice using the following cancer cell lines: • OVCAR4 (Cisplatin refractory ovarian cancer; high B7-H4 expression) • HCC1569 (HER2 positive breast cancer; heterogeneous B7-H4 expression) • MDA-MB-468 (Triple negative breast cancer; low B7-H4 expression)

MDA-MB-468 xenograft = assay: Tumour xenograft; format: in vivo, mice; conditions: triple negative breast cancer, low B7-H4
Description: as §1

OVCAR4 xenograft = assay: Tumour xenograft; format: in vivo, mice; conditions: cisplatin refractory ovarian cancer, high B7-H4
Description: as §1

human B7-H4 = biological target: T1, human B7-H4; assay: ELISA comparison with 1D11; format: binding; conditions: E02-GL compared with 1D11
Description: The binding of the anti-B7-H4 antibodies (e.g. intermediate ZY0EQD-E02-GL and anti-B7-H4 mAB D11) to B7-H4 (e.g. human and mouse B7-H4) was measured by ELISA. Recombinant B7-H4-Fc (e.g. Human B7-H4-Fc and mouse B7-H4-Fc) proteins were diluted into DPBS to give 5 ug/ml solution. 50 μL of the diluted stocks was then added Nunc Maxisorp 96 well plates. 50 μL/well DPBS was added to control wells. The antigens were allowed to adsorb to the plates overnight at 4° C., washed once with DPBS and incubated with blocking buffer (3% w/v Marvel in DPBS) at room temperature for 1 hour. The plates were then washed once with PBS and incubated for 1 hour with 6.4 pM-100 nM anti-B7-H4 antibody (e.g. intermediate ZY0EQD-E02-GL or anti-B7-H4 mAb D11) diluted in DPBS containing 1% BSA, 0.3% Triton X-100. The plates were then washed three times with PBS containing 0.1% Tween and incubated with peroxidase-conjugated goat anti-human light chain antibody (Sigma Aldrich, Poole, UK) for 1 hour at room temperature. The plates were then washed five times with PBS containing 0.1% Tween. Following a 5-minute incubation with TMB peroxidase substrate, the reaction was stopped by the addition of 0.5 M H2SO4. Absorbance at 450 nm (A450) was measured using an Envision multilabel plate reader (Perkin Elmer, Seer Green, UK). […]

[1] = biological target: T2, immobilized recombinant human B7-H4; assay: DELFIA-ELISA; format: binding
Description: To assess whether conjugation of the topoisomerase 1 linker-warhead affected binding properties of the E02-INT antibody, the binding affinity of E02-INT and E02-GL-SG3932 were measured using a DELFIA-ELISA method and an SPR method. […] The kinetic rate constants (kon and koff) and equilibrium dissociation constants (KD) of E02-INT and E02-GL-SG3932 for human B7-H4 antigen was also determined by SPR, using an antibody capture method.

Row | Molecule | tumour volume versus vehicle (HCC1569 xenograft) | tumour volume versus vehicle (MDA-MB-468 xenograft) | tumour volume versus vehicle (OVCAR4 xenograft) | binding (affinity) to human B7-H4 by ELISA (human B7-H4) | EC50 [1]
1 | B1 | significant decrease in tumour volume | significant decrease in tumour volume | significant decrease in tumour volume | – | –
2 | B2 | – | – | – | significantly better binding; also recorded: significantly stronger binding | 1.98 nM
